Reference: patent US20240417475A1 (AFFIMED, published 2024)

B1: scFv-IgAb_387 (FOLR1_1×CD16a3) (bispecific antibody)
heavy: EVQLVESGGGVVQPGRSLRLSCSASGFTFSGYGLSWVRQAPGKGLEWVAMISSGGSYTYYADSVKGRFAISRDNAKNTLFLQMDSLRPEDTGVYFCARHGDDPAWFAYWGQGTPVTVSSASTKGPSVFPLAPSSKSTSGGTAALGCLVKDYFPEPVTVSWNSGALTSGVHTFPAVLQSSGLYSLSSVVTVPSSSLGTQTYICNVNHKPSNTKVDKKVEPKSCDKTHTCPPCPAPEFEGGPSVFLFPPKPKDTLMISRTPEVTCVVVAVSHEDPEVKFNWYVDGVEVHNAKTKPREEQYNSTYRVVSVLTVLHQDWLNGKEYKCKVSNKALPAPIEKTISKAKGQPREPQVYTLPPSREEMTKNQVSLTCLVKGFYPSDIAVEWESNGQPENNYKTTPPVLDSDGSFFLYSKLTVDKSRWQQGNVFSCSVMHEALHNHYTQKSLSLSPGGGGGSGGGGSGGGGSGGGGSGGGGSGGGGSSYELTQPLSVSVALGQTARITCGGNNIGSKSVHWYQQKPGQAPVLVIYQDKKRPSGIPERFSGSNSGNTATLTISRAQAGDEADYYCQVWDDYIVLFGCGTKLTVLGGSGGSGGSGGSGGSGGSGGSQVQLVQSGAEVKKPGASVKVSCKASGYTFTNYYMQWVRQAPGQCLEWMGIINPSGGVTSYAQKFQGRVTMTRDTSTSTVYMELSSLRSEDTAVYYCARGSAYYYDFADYWGQGTLVTVSSG
light: DIQLTQSPSSLSASVGDRVTITCSVSSSISSNNLHWYQQKPGKAPKPWIYGTSNLASGVPSRFSGSGSGTDYTFTISSLQPEDIATYYCQQWSSYPYMYTFGQGTKVEIKRTVAAPSVFIFPPSDEQLKSGTASVVCLLNNFYPREAKVQWKVDNALQSGNSQESVTEQDSKDSTYSLSSTLTLSKADYEKHKVYACEVTHQGLSSPVTKSFNRGEC
modifications: Chemically biotinylated (NHS-PEG4-biotin) in Example 22 only.
notes: Tetravalent bispecific scFv-IgAb; also called FOLR1×CD16A scFv-IgAb_387; FOLR1/CD16A scFv-IgAb_387; copies: 2 + 2
B2: scFv-IgAb_381 (FOLR1_1×CD16a4) (bispecific antibody)
chain 1: EVQLVESGGGVVQPGRSLRLSCSASGFTFSGYGLSWVRQAPGKGLEWVAMISSGGSYTYYADSVKGRFAISRDNAKNTLFLQMDSLRPEDTGVYFCARHGDDPAWFAYWGQGTPVTVSSASTKGPSVFPLAPSSKSTSGGTAALGCLVKDYFPEPVTVSWNSGALTSGVHTFPAVLQSSGLYSLSSVVTVPSSSLGTQTYICNVNHKPSNTKVDKKVEPKSCDKTHTCPPCPAPEFEGGPSVFLFPPKPKDTLMISRTPEVTCVVVAVSHEDPEVKFNWYVDGVEVHNAKTKPREEQYNSTYRVVSVLTVLHQDWLNGKEYKCKVSNKALPAPIEKTISKAKGQPREPQVYTLPPSREEMTKNQVSLTCLVKGFYPSDIAVEWESNGQPENNYKTTPPVLDSDGSFFLYSKLTVDKSRWQQGNVFSCSVMHEALHNHYTQKSLSLSPGGGGGSGGGGSGGGGSGGGGSGGGGSGGGGSSYELTQPLSVSVALGQTARITCGGHNIGSKNVHWYQQKPGQAPVLVIYQDNKRPSGIPERFSGSNSGNTATLTISRAQAGDEADYYCQVWDNYNVLFGCGTKLTVLGGSGGSGGSGGSGGSGGSGGSQVQLVQSGAEVKKPGASVKVSCKASGYTFTSYYMHWVRQAPGQCLEWMGAIEPTYGSTSYAQKFQGRVTMTRDTSTSTVYMELSSLRSEDTAVYYCARGSAYYYDFADYWGQGTLVTVS
chain 2: B1 light
notes: also called FOLR1×CD16A scFv-IgAb_381

Key:
[1] = molecular target: T1, human CD16A (158F) expressed on CHO cells (cAg_34) (human, UniProt P08637 17-254); assay: flow cytometry on huCD16A (158F) CHO cells (cAg_34), one-site fit of MFI, Exp. 2
T1 construct: also called huCD16A-transfected CHO cells
T1 sequence (P08637 17-254 limits assumed): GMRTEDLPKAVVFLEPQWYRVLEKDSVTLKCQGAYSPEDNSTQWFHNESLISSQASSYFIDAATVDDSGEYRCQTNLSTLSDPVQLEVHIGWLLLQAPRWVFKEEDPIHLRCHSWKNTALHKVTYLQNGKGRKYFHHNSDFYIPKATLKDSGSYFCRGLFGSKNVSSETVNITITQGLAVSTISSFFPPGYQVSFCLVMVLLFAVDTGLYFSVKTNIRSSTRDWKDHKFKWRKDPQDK
Method: (§1) After washing in FACS buffer, cells were incubated in 50 μL FACS buffer without antibodies or with titrated antibodies starting at a concentration of 1000 nM followed by elven 3-fold serial dilutions for 40-50 min on ice in the dark. […] After washing, binding was measured by flow cytometry and mean fluorescence intensities (MFI) of cell samples were calculated and corrected for background staining using control cells stained with secondary antibodies only.
(§2) Equilibrium dissociation constants (KD) of antibody binding were calculated by plotting MFI values and fitting a non-linear regression model for one-site binding to hyperbolic dose-response curves using GraphPad Prism.

[2] = molecular target: T1, human CD16A (158F) expressed on CHO …; assay: flow cytometry on huCD16A (158F) CHO cells (cAg_34), one-site fit of MFI, Exp. 1
Method: as §1, §2

[3] = molecular target: T2, cynomolgus CD16 expressed on CHO cells (cAg_36) (cynomolgus, UniProt Q8SPW2 17-254); assay: flow cytometry on cyCD16 CHO cells (cAg_36), one-site fit of MFI, Exp. 2
T2 construct: whole, on cells; also called cyCD16
T2 sequence (Q8SPW2 17-254): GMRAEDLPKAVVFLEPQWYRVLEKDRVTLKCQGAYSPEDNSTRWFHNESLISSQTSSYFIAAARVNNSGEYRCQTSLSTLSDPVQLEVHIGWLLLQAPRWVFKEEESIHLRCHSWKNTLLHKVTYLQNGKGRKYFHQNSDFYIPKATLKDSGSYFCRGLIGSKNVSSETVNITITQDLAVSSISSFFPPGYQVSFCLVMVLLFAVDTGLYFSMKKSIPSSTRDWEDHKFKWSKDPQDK
Method: as §1, §2

[4] = molecular target: T3, human CD16A (158V) expressed on CHO cells (cAg_35) (human, UniProt P08637 17-254); assay: flow cytometry on huCD16A (158V) CHO cells (cAg_35), one-site fit of MFI, Exp. 3
T3 construct: also called huCD16A (158V)
T3 sequence (P08637 17-254 F176V limits assumed): as the sequence (P08637 17-254 limits assumed) above, with F160V counted along it
Method: as §1, §2

[5] = molecular target: T1, human CD16A (158F) expressed on CHO …; assay: flow cytometry on huCD16A (158F) CHO cells (cAg_34), one-site fit of MFI, Exp. 3
Method: as §1, §2

[6] = molecular target: T4, human FOLR1 expressed on CHO cells (cAg_125) (human, UniProt P15328 25-234); assay: flow cytometry on huFOLR1-transfected CHO cells (cAg_125), on ice, FITC goat anti-human IgG detection
T4 construct: whole, on cells; also called huFOLR1
T4 sequence (P15328 25-234): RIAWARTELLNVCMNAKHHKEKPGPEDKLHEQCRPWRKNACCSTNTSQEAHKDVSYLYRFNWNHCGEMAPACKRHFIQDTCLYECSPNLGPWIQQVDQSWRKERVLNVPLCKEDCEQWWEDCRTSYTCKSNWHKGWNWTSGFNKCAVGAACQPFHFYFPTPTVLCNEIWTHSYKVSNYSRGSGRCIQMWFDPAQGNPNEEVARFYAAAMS
Method: (§3) To analyze binding of different antibody constructs to CHO cells transfected with human FOLR1 (cAg_125) and cynomolgus FOLR1 (cAg_126), 1-5×10⁵ were resuspended in 100 μL FACS buffer (PBS (BioWest, cat.: L0615-500) containing 2% heat-inactivated FCS (Invitrogen, cat.: 10500-064), and 0.1% sodium azide (Sigma, cat.: S8032_100G)) in round-bottom 96-well microtiter plates. After washing in FACS buffer, cells were incubated in 50 μL FACS buffer without antibodies or with titrated antibodies starting at a concentration of 1000 nM followed by eleven 3-fold serial dilutions for 40-50 min on ice in the dark. […] After washing, binding was measured by flow cytometry and mean fluorescence intensities (MFI) of cell samples were calculated and corrected for background staining using control cells stained with secondary antibodies only.

[7] = molecular target: T5, cynomolgus FOLR1 expressed on CHO cells (cAg_126) (cynomolgus, UniProt A0A2K5U044 25-234); assay: flow cytometry on cyFOLR1 CHO cells (cAg_126), one-site fit of MFI, mean
T5 construct: whole, on cells; also called cyFOLR1
T5 sequence (A0A2K5U044 entry or part of it): as the sequence (P15328 25-234) above, with I2T, W4R, R37K, A146P, H171Y counted along it
Method: as §3
as §2, with “Binding of antibody constructs to huFOLR1-as well as cyFOLR1-transfected CHO cells was measured by flow cytometry. Equilibrium” for “Equilibrium”

[8] = molecular target: T1, human CD16A (158F) expressed on CHO …; assay: flow cytometry on huCD16A (158F)-transfected CHO cells (cAg_34), on ice, FITC goat anti-human IgG detection
Method: as §1

[9] = molecular target: CD16A endogenously expressed on primary human NK cells (human, UniProt P08637 17-254); assay: flow cytometry on primary human NK cells at 37 °C, biotinylated antibody, streptavidin-FITC, in the presence of 10 mg/mL polyclonal human IgG (competitor)
CD16A endogenously expressed on primary human NK cells, sequence (P08637 17-254 limits assumed): as the sequence (P08637 17-254 limits assumed) above
Method: Frozen NK cells were thawed, and viability was determined with trypan blue (Sigma-Aldrich, cat.: T8154). Cells have been centrifuged at 400×g, 5 min, 4° C. Cell pellets were resuspended in FACS buffer PBS (Invitrogen, cat.: 392-0434) containing 2% h.i. FCS (Invitrogen, cat.: 10500-064), and 0.1% sodium azide (Sigma, cat.: S8032) at 2×10⁶ cells/mL. 100 μL/well of the cell suspension were transferred into U-shaped 96 well plates, cells were pelleted at 400×g, 5 min. 4° C., and resuspended in 50 μL/well of diluted antibody constructs. […] After 40-50 minutes' incubation at 37° C., cells were washed 3-times with ice-cold FACS buffer. […] After the final incubation step, cells were washed 2-times with ice-cold FACS buffer, and the cell pellet was resuspended in 50 μL FACS buffer. Fluorescence intensity of >1×10⁴ viable cells was analyzed by flow cytometry and the median fluorescence intensity (MFI) was determined for each sample.

[10] = molecular target: human FOLR1 endogenously expressed on tumor cell lines (human, UniProt P15328 25-234); assay: cell-based or functional assay
human FOLR1 endogenously expressed on tumor cell lines, sequence (P15328 25-234): as the sequence (P15328 25-234) above

Row | Binder | Kd [1] [nM] | Kd [2] [nM] | Kd [3] [nM] | Kd [4] [nM] | Kd [5] [nM] | EC50 (read off the curve) [6] [nM] | Kd [7] [nM] | EC50 (read off the curve) [8] [nM] | EC50 (read off the curve) [9] [nM] | EC50 [nM] of ADCP, DK-MG cells [10] [nM] | EC50 [nM] of ADCP, HCC-78 cells [10] [nM] | EC50 [nM] of ADCP, HeLa cells [10] [nM] | Phagocytosis [%], 4 h ADCP, DK-MG cells [10] [%] | Phagocytosis [%], 4 h ADCP, HCC-78 cells [10] [%]
1 | B1 | 28.5 | 16 | 26.2 | 47.5 | 19.9 | ~40 | 16.3 | ~20 | ~20 | 0.1 | 17.8 | 0.16 | 17.6 | 26
2 | B2 | 29.3 | 22.1 | 31.7 | 63.7 | 27.1 | ~30 | 12.4 | ~30 |  |  |  |  |  | 
